Target: the molecule itself
Assay: SEC

B1: pimeloyl-CoA ligase (BioW) (enzyme, UniProt P53559 1-259, looked up)
chain: MMQEETFYSVRMRASMNGSHEDGGKHISGGERLIPFHEMKHTVNALLEKGLSHSRGKPDFMQIQFEEVHESIKTIQPLPVHTNEVSCPEEGQKLARLLLEKEGVSRDVIEKAYEQIPEWSDVRGAVLFDIHTGKRMDQTKEKGVRVSRMDWPDANFEKWALHSHVPAHSRIKEALALASKVSRHPAVVAELCWSDDPDYITGYVAGKKMGYQRITAMKEYGTEEGCRVFFIDGSNDVNTYIHDLEKQPILIEWEEDHDS
- stoichiometry N: 2

Source: article PMC3927786 (Chemistry & biology, 2013)
